US20130053541A1, “METHODS FOR DISCOVERING MOLECULES THAT BIND TO PROTEINS” (LYNNTECH, INC., priority 2011, published 2013)
Where no end group is shown, it is not given here.

T1: native human ESRRG protein (Estrogen-receptor related receptor gamma) (human, UniProt P62508 229-458, limits assumed)
T1 construct: the screened protein is called 'native human ESRRG protein'; also called ESSRG; ERRγ
T1 sequence (looked up): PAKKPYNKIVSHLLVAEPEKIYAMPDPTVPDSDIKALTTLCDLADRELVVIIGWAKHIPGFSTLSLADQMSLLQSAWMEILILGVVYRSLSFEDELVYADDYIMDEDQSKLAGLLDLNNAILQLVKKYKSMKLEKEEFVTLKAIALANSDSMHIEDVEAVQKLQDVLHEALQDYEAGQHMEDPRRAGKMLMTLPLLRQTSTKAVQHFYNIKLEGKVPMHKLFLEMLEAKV

T2: Annexin A5 (Homo sapiens (Human), UniProt P08758 2-320, directly labeled with a fluorescent tag (Cy 5 per paragraph 324; Cy3 per paragraph 57))
T2 construct: also called ANXA5; ANX-A5
T2 sequence: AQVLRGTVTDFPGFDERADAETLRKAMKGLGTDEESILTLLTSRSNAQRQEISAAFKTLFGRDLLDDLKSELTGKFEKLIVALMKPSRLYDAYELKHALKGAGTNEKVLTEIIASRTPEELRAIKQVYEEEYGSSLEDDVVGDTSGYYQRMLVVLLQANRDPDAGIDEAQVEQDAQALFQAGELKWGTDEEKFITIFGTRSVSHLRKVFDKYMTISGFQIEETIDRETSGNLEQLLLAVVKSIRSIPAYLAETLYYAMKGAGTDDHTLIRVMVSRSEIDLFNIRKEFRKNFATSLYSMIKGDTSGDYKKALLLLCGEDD


What was measured:
[1] = target: T1, native human ESRRG protein …; test: peptide microarray, Iteration 1; bound ESRRG detected with fluorescent anti-ESRRG mAb
Method: (§1) Screening was carried out typically by hybridization of the protein (1 μg/mL) against the array for 1 h at 4° C.; detection of bound protein was carried out using a fluorescently labeled anti-ESRRG mAb. (Direct labeling of ESRRG and alternative detection strategies are equally valid).
Daughter candidate ligands and their new Tier 3 and/or Tier 1 based combinations were synthesized in situ on an addressable peptide microarray and screened against native human ESRRG protein in order to determine sequences that bind to this protein. Bound protein was detected by a fluorescently labeled anti-ESRRG mAb. […] Excess (100×) competing biological matrices (human serum, HSA/BSA or bacterial protein extract) were used as backgrounds to select for specific ligands to the protein. Other competing proteins can be added to background for specificity selection and directed evolution of ligands.

[2] = target: T1, native human ESRRG protein …; test: custom peptide microarray density chip
[3] = target: T1, native human ESRRG protein …; test: peptide microarray, Iteration 2; bound ESRRG detected with fluorescent anti-ESRRG mAb
Method: as §1
Iterative sequence expansion and arraying of 10 highest binding ligands to ESRRG from Iteration 1 was carried out and the new peptide sequences were synthesized on an array and screened against the protein, as described above. In this step, the central 2 amino acids (core) in peptide sequences were maintained unchanged while outlying amino acids (2, 3, 6, and 7) were permuted (using Tier 1 and Tier 3 substitutions) in a ‘cipher’ or ‘combination’ lock approach.

Annexin A5 = target: T2, Annexin A5; test: peptide density-array chip

Binder	Kd [2]	Kd (Annexin A5)	other results
Ac-AANMFLLL	29 nM	–	Sample B (Probe) Signal [1]: 1750 fluorescence intensity units; log2 (Sample B/Sample A) [1]: 5.37
Ac-VQYNYLQR	19.3 nM	–	–
Ac-FWKGHFDF	9.16 nM	–	Sample B (Probe) Signal [3]: 1460 fluorescence intensity units; log2 (Sample B/Sample A) [3]: 2.66
Ac-IFSYVRVY	15.4 nM	–	–
Ac-IFSYPRVY	17.5 nM	–	–
Ac-NSLRKHLL	24.4 nM	–	Sample B (Probe) Signal [1]: 856 fluorescence intensity units; log2 (Sample B/Sample A) [1]: 5.36
Ac-NSLKKHLL	18.3 nM	–	Sample B (Probe) Signal [1]: 9220 fluorescence intensity units; log2 (Sample B/Sample A) [1]: 10.8
Ac-NSLLKHLL	20.7 nM	–	Sample B (Probe) Signal [1]: 14800 fluorescence intensity units; log2 (Sample B/Sample A) [1]: 7.65
SERYWARY (Array-synthesised 8-mer)	–	91.7 nM	–
SERYYARY (Array-synthesised 8-mer)	–	361 nM	–
SERYSARY (Array-synthesised 8-mer)	–	82.5 nM	–
SERYTARY (Array-synthesised 8-mer)	–	86.9 nM	–
SERCWARY (Array-synthesised 8-mer)	–	218 nM	–
SERCYARY (Array-synthesised 8-mer)	–	301 nM	–
Ac-QYPKMQRL	17.9 nM	–	–
Ac-NIKVNANN	17 nM	–	Sample B (Probe) Signal [1]: 599 fluorescence intensity units; log2 (Sample B/Sample A) [1]: 7.62
Ac-VLLHYGLY	27.4 nM	–	Sample B (Probe) Signal [3]: 1800 fluorescence intensity units; log2 (Sample B/Sample A) [3]: 2.37
Ac-FYNMYLLN	27.4 nM	–	Sample B (Probe) Signal [3]: 1560 fluorescence intensity units; log2 (Sample B/Sample A) [3]: 2.63
Ac-ANNLRLLH	28.9 nM	–	–
Ac-ANNSRLLH	28.9 nM	–	Sample B (Probe) Signal [1]: 1480 fluorescence intensity units; log2 (Sample B/Sample A) [1]: 5.54
Ac-ANNVRLLH	30.5 nM	–	–
AYLHHAAG (Array-synthesised 8-mer)	–	87.6 nM	–

Binder	Kd [2]	Kd (Annexin A5)	other results
AYLGYAAG (Array-synthesised 8-mer)	–	24.5 nM	–
AYLVHAAG (Array-synthesised 8-mer)	–	92.2 nM	–
AYLHYAAG (Array-synthesised 8-mer)	–	21.9 nM	–
AYLGHAAG (Array-synthesised 8-mer)	–	57.5 nM	–
AYLHGAAG (Array-synthesised 8-mer)	–	93.1 nM	–
AYLMHAAG (Array-synthesised 8-mer)	–	63 nM	–
Ac-NIKLFANN	24.7 nM	–	–
Ac-IKQNHNNS	12.5 nM	–	Sample B (Probe) Signal [1]: 794 fluorescence intensity units; log2 (Sample B/Sample A) [1]: 9.63
Ac-IKQDHNNS	15.7 nM	–	Sample B (Probe) Signal [1]: 701 fluorescence intensity units; log2 (Sample B/Sample A) [1]: 9.45
Ac-LLHSSKSQ	28.3 nM	–	Sample B (Probe) Signal [1]: 819 fluorescence intensity units; log2 (Sample B/Sample A) [1]: 5.4
Ac-LLHKSKSQ	28.5 nM	–	Sample B (Probe) Signal [1]: 962 fluorescence intensity units; log2 (Sample B/Sample A) [1]: 4.99
Ac-LYLLKHHP	29.1 nM	–	Sample B (Probe) Signal [3]: 2530 fluorescence intensity units; log2 (Sample B/Sample A) [3]: 3.05
Ac-SLLFHLLK	26.7 nM	–	–
Ac-IFSEIRVY	16.1 nM	–	–
Ac-IFSKIRVY	15.6 nM	–	–
Ac-IFSEMRVY	7.88 nM	–	–
SERFFARY (Array-synthesised 8-mer)	–	520 nM	–
Ac-AIRGALMG	27.4 nM	–	Sample B (Probe) Signal [1]: 851 fluorescence intensity units; log2 (Sample B/Sample A) [1]: 5.48
Ac-AIRLFLMG	13.8 nM	–	–
Ac-AIRLHLMG	22.4 nM	–	Sample B (Probe) Signal [1]: 943 fluorescence intensity units; log2 (Sample B/Sample A) [1]: 5.07
Ac-NNSWRLHL	29.4 nM	–	–
